B1: antibody 1859 (antibody, V domains shown)
VH: EVQLVESGGGLVKPGGSLRLSCAASGFSFNTYTMNWVRQAPGKGLEWVSYISSSSSYKYYSDSVKGRFSVSRDNAKKSLYLQMNGLRAEDTAVYYCARDGYCPNGVCTYYGMDVWGQGTTVTVSL
VL: EIVMTQSPATLSVSPGERATLSCRASQSVSSNLAWYQQKPGQAPRLLIYGASTRATGIPARFSGSGSGTEFTLTISGLQSEDFAVYFCQQYSKWPPAYTFGQGTKLEIK
B2: antibody 1872 (antibody, V domains shown)
VH: EVQLVESGGGLVKPGGSLRLSCAASGFSFSLYTMNWVRQAPGKGLEWVSYISSSSSYRYYADSVKGRFSVSRDNAKNALYLQMNGLRAEDTAVYYCARDGYCPRGVCTYYGMDVWGQGTTVTVSA
VL: EIVMTQSPATLSVSPGERATLSCRASQSVGSRLAWYQQKPGQAPRLLIYDATIRATGIPARFSGSGSGTDFTLTISGLQSEDFAVYYCQRYNNWPPAYTFGQGTKLEIK
B3: antibody 1871 (antibody, V domains shown)
VH: EVQLVESGGGLVKPGGSLRLSCVASGFSFSIYSMNWVRQAPGKGLEWVSYISSSSSYKYYADSVKGRFSVSRDNAKNSLYLQLNGLRAEDTAVYYCARDGYCPKGVCTYYGMDVWGQGTTVTVSA
VL: EIVMTQSPATLSVSPGERVTLSCRASQSVRSRLAWFQQKPGQAPRLLIYDASIRATGIPARFSGSGSGTEFTLIISSLQSEDFAVYYCQQYDNWPPAYTFGQGTKLEIK
B4: antibody 4042 (antibody, V domains shown)
VH: QITLKESGPTLVKPTQTLTLTCTFSGFSLSSGGVGVGWIRQPPGKALEWLALIYWDDDKRYRPSLKSRLTITRDTSTNQVVLTMTNMDPVDTATYFCARHQIATVFDHWGQGTLVTVSS
VL: QSALTQPASVSGSPGQSITISCTGTSSDVGGYNYVSWYQQHPGKAPKLMIYEVSNRPSGVSSRFSGSKSGNTASLTISGLQAEDEADYYCSSYTRSSPLVAFGGGTKVTVL
B5: antibody 2892 (antibody, V domains shown)
VH: QVQLVQSGAEVKKPGSSVKVSCKASGDAFISYAISWVRQAPGQGLEWMGGIIPIFGTANYAQKFQGRVTISADESTSTAYMELSRLRSEDTAVYYCARGGPEPYGSGSGYTPRYNWFDPWGQGTLVTVSS
VL: QSALTQPRSVSGSPGQSVTISCTGTSSDVGGYNYVSWYQQHPGKAPKFMIYDVNRRPSGVPDRFSGSKSGNTASLTISGLQAEDEADYYCCSYAGTYTWVFGGGTKLTVL
B6: antibody 3091 (antibody, V domains shown)
VH: QMQLVQSGPEVKKPGTSVKVSCKASGFTFSSSAVQWVRQARGQGLEWIGWIVVGSGNANYAQKLQERVSITRDMSTSTAYMELSSLRPEDTAVYYCAAPHCSRTICHDGFDMWGQGTMVTVSS
VL: EIVLTQSPGTLSLSPGERATLSCRASQSVRSSYLAWYQQKPGQAPRLLMFVASSRATGIPDRFSGSGSGTDFTLTISRLEPEDFAVYYCQQYDTSPWTFGQGTKVEIK
B7: antibody 1814 (antibody, V domains shown)
VH: QVQLQESGPGLVKPSETLSLTCSVSGGSINYYYWSWIRQTPGQGLEWIGFIYSSGTTNYNPSLKSRVTMSKDTAKKQFSLKLTSVTAADSAVYYCARHSRSCTNGVCQTYYYYALDVWGHGTTVTVSS
VL: QSVLTQPPSVSGAPGQRVTISCTGSGSNIGSGYDVHWYQQLPGRAPKLLIYRNRNRPSGVPDRFSGSKSGTSASLAIAGLQSEDEGDYFCQSYDGRLGESAVFGGGTRLTVL
B8: antibody 3086 (antibody, V domains shown)
VH: QVQLQESGPGLVKPSETLSLTCTVSGGSISGHYWSWIRQPPGKGLEWIGYIYYSGSTNYNPSLKSRVTISVDTSVNQFSLKLSSVTAADTAVYYCARQEARDAVGNYFFDSWGQGTLVTVSS
VL: QSALTQPASVSGSPGQSITISCSGTSSDIGSYDLVSWYQQHPGKAPKLLIYDVTKRPSGVSHRFSGSKSGNTASLTISGLQGEDEADYYCCSYVHFSTWVFGGGTKLTVL
B9: antibody 980 (antibody, V domains shown)
VH: QVQLVESGGGVVQPGRSLRLSCAASGFTFSRYGMHWVRQAPGKGLEWVALISSGGSNKYYADSVKGRFTISRDNSKNTLYLEMNSLRAEDTAVYYCAKDAIYDYIWGAYRENWFDPWGQGTLVTVSS
VL: DIQMTQSPSSLSASVGDRVTITCRASQSISNYLNWYQQKPGKAPNLLIYAASSLQSGVPSRFSGSGSGTDFTLTISSLQPEDFATYYCQQTSSPPLTFGQGTKVEIK
B10: antibody 4441 (antibody, V domains shown)
VH: EVQLVESGGGLVQPGRSLRLSCAASGLTFEDYAMHWVRQPPGKGLEWVSGVSWNSGTIGYADSVKGRFTISRDNAKNSLYLHMRSLGAEDTAMYYCAKDMGGRFSFFSLENDAFDIWGQGTMVIVSS
VL: SYELTQPPSVSVSPGQTARITCSGDALPKQSTYWYQQKPGQAPVLVIYKDIERPSGIPERFSGSSSGTTVTLTISGVQAEDEADYYCQSADSSDTYVFGTGTKVTVL
B11: antibody 2564 (antibody, V domains shown)
VH: QVQLVQSGAEVKKPGSSVRVSCKASGGTFISYTFNWVRQAPGQGLEWMGRIIPIFGIVNYAQKFQGRVTIAADKSTSTAYMELSSLRSEDTAMYYCATATVDYDSGEEQSSFDPWGQGTLVTVSS
VL: EIVLTQSPGTLSLSPGERATLSCRASQSVSSSYLAWYQQKAGQTPRLLIYAASSRATGVPDRFSGSGSGTDFTLTISRLEAEDFAVYYCQQSWTFGQGTKVEIK
B12: antibody 2794 (antibody, V domains shown)
VH: QVQLVQSGAEVKKPGSSLKVSCKASGGTFNNFAISWVRQAPGQGPEWMGRINPILSAAKYAQKFQGRLTITADKSTTTAYMELSSLRSEDTAVYYCAPTGTGESWWFDPWGQGTLVTVSS
VL: QSVLTQPPSASGTPGQRVTISCSGSSSNIGTNYVYWYQQLPGTAPKVLIYGNNQRPSGVPDRFSGSKSGSSASLAISGLRSEDEADYYCAAWDDSLSGPVFGGGTKLTVL

Key:
[1] = target: T1, Receptor-binding domain (RBD) of the SARS-CoV-2 spike protein, WA01/2020 strain (SARS-CoV-2, WA01/2020 strain, UniProt P0DTC2 319-541); assay: ELISA screening, antibody concentration not given
[2] = target: SARS-CoV-2 spike protein, B1.1.7 (alpha variant), borne on lentiviral pseudovirus (SARS-CoV-2, B1.1.7); assay: cell-based or functional assay
[3] = target: SARS-CoV-2 spike protein, B1.351 (beta variant), borne on lentiviral pseudovirus (SARS-CoV-2, B1.351); assay: cell-based or functional assay
[4] = target: T2, SARS-CoV-2 spike protein on live virus, strain USA-WA1/2020 (SARS-CoV-2, WA01/2020 strain, UniProt P0DTC2 14-1273); assay: cell-based or functional assay
[5] = target: T1, Receptor-binding domain (RBD) of the …; assay: SPR (Biacore 8K), antigen immobilized, antibody injected
[6] = target: T1, Receptor-binding domain (RBD) of the …; assay: ELISA, antibody blocks RBD binding to human ACE2
[7] = target: T2, SARS-CoV-2 spike protein on live virus, …; assay: cell-based or functional assay; remark: listed apart in the source
[8] = target: SARS-CoV-2 spike protein on live virus, B1.351 (beta variant) (SARS-CoV-2, B1.351); assay: cell-based or functional assay
[9] = target: T1, Receptor-binding domain (RBD) of the …; assay: dose-response ELISA on coated antigen

Row | Binder | binding result [1] | Pseudo Neut, B1.1.7 IC50 (pM) [2] [pM] | Pseudo Neut, B1.351 IC50 (pM) [3] [pM] | IC50, live virus micro-neutralization WA1/2020 [4] [pM] | Kd [5] [nM] | IC50 [6] [nM] | Live Neut, WA1/2020 IC50 (pM) [7] [pM] | Live Neut, B1.351 IC50 (pM) [8] [pM] | EC50 [9] [nM]
1 | B1 | no binding (tested: not printed) | 230 | 73 | – | – | – | – | – | –
2 | B2 | no binding (tested: not printed) | 130 | 75 | – | – | – | – | – | –
3 | B3 | no binding (tested: not printed) | 110 | 208 | – | – | – | – | – | –
4 | B4 | – | 200 | 948 | 39 | 0.036 | 1.09 | 15 | 140 | 0.021
5 | B5 | – | ~13 | 125 | 82 | 0.005 | 0.762 | 10 | 403 | 0.089
6 | B6 | – | ~13 | 78 | 55 | 0.004 | 0.56 | 8 | 172 | 0.03
7 | B7 | no binding (tested: not printed) | 237 | 32 | – | – | – | – | – | –
8 | B8 | – | 71 | 115 | 62 | 0.242 | 0.562 | 7 | 210 | 0.03
9 | B9 | – | 1670 | 1740 | 8.2 | 0.87 | 0.86 | 25 | 83 | 0.023
10 | B10 | – | ~13 | 2320 | 58 | 0.022 | 1.02 | 85 | – | 0.05
11 | B11 | – | 33 | 196 | 22.6 | 0.012 | 0.776 | 7 | 121 | 0.023
12 | B12 | – | 148 | 428 | 55 | 0.232 | 0.137 | 17 | – | 0.022
